# In PMC9482650, “Quantitative fragmentomics allow affinity mapping of interactomes” (Nature Communications, 2022):
# T1: NHERF3_4, Q5T2W1
# T1 sequence (Q5T2W1 373-468, limits assumed, looked up): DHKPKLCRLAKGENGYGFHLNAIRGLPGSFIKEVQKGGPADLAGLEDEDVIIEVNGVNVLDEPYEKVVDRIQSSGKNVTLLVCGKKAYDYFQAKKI
# T2: NHERF3_3, Q5T2W1
# T2 sequence (Q5T2W1 238-333, limits assumed, looked up): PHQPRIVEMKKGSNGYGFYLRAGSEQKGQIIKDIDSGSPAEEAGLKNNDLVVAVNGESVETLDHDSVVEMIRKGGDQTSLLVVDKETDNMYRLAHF
# T3: SIPA1L2, Q9P2F8
# T3 sequence (Q9P2F8 945-1036, limits assumed, looked up): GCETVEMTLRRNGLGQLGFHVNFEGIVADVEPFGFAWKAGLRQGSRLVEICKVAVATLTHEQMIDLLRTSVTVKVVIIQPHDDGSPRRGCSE
# T4: SNTB1, Q13884
# T4 sequence (Q13884 107-205, limits assumed, looked up): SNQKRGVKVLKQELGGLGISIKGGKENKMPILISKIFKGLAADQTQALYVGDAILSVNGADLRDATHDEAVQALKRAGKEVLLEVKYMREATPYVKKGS
# T5: GRIP1_5, Q9Y3R0
# T5 sequence (Q9Y3R0 568-668, limits assumed, looked up): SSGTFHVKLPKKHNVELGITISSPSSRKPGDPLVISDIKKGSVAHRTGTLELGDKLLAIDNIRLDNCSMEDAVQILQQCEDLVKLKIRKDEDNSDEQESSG
# T6: LIN7C, Q9NUP9
# T6 sequence (Q9NUP9 88-185, limits assumed, looked up): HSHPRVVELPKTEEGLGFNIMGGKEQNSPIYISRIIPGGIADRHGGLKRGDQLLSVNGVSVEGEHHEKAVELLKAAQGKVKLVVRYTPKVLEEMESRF
# T7: SHANK1, Q9Y566
# T7 sequence (Q9Y566 658-767, limits assumed, looked up): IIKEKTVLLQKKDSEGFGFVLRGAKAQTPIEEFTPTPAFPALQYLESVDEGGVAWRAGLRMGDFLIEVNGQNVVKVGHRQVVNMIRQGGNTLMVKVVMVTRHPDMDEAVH
# T8: DVL3, Q92997
# T8 sequence (Q92997 244-331, limits assumed, looked up): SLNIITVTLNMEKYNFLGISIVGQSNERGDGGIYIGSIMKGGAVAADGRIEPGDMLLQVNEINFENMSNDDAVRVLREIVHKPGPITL
# T9: MPDZ_5, O75970
# T9 sequence (O75970 695-796, limits assumed, looked up): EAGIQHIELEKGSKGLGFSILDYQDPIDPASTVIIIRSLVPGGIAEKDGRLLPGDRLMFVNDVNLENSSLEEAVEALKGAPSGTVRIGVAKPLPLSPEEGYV
# T10: DFNB31_3, Q9P202
# T10 sequence (Q9P202 811-907, limits assumed, looked up): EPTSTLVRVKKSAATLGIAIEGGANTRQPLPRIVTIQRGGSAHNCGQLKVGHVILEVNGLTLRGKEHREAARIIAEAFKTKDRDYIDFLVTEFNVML
# T11: DLG3_2, Q92796
# T11 sequence (Q92796 221-321, limits assumed, looked up): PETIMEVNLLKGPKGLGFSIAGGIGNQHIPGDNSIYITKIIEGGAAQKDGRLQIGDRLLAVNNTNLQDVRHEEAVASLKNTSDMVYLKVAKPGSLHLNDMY
# T12: LNX2_2, Q8N448
# T12 sequence (Q8N448 334-432, limits assumed, looked up): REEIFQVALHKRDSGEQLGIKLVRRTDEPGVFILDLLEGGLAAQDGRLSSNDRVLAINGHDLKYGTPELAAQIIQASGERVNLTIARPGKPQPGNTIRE
# Target: T1, NHERF3_4, Q5T2W1
# Assay: holdup assay
# Parameters: key: below the threshold = too weak to quantify, mostly under pKd 3.1 to 4
# Conditions: plain residues with an end cap or a label only (N-terminal biotin on a linker: ado-ado)
row,Binder,pKd
1,"VLYPREGTEV [FOXI1, Q12951]",below the threshold

# Target: GORASP1, Q9BQQ3
# Sequence (Q9BQQ3 1-208): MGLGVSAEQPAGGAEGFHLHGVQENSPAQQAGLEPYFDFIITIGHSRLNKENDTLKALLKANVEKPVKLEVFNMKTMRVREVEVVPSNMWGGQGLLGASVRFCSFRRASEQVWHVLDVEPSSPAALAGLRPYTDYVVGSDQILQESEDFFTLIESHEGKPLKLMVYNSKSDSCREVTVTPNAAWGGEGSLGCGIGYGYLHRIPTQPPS
# Assay: holdup assay
# Parameters: key: below the threshold = too weak to quantify, mostly under pKd 3.1 to 4
# Conditions: plain residues with an end cap or a label only (N-terminal biotin on a linker: ado-ado)
row,Binder,pKd
1,"VLYPREGTEV [FOXI1, Q12951]",below the threshold

# Target: SCRIB_2, Q14160
# Sequence (Q14160 857-960): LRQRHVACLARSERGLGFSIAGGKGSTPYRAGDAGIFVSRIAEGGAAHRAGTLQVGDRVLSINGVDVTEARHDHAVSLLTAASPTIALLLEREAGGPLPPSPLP
# Assay: holdup assay
# Parameters: key: below the threshold = too weak to quantify, mostly under pKd 3.1 to 4
# Conditions: plain residues with an end cap or a label only (N-terminal biotin on a linker: ado-ado)
row,Binder,pKd
1,"VLYPREGTEV [FOXI1, Q12951]",4.16

# Target: T2, NHERF3_3, Q5T2W1
# Assay: holdup assay
# Parameters: key: below the threshold = too weak to quantify, mostly under pKd 3.1 to 4
# Conditions: plain residues with an end cap or a label only (N-terminal biotin on a linker: ado-ado)
row,Binder,pKd
1,"VLYPREGTEV [FOXI1, Q12951]",below the threshold

# Target: T3, SIPA1L2, Q9P2F8
# Assay: holdup assay
# Parameters: key: below the threshold = too weak to quantify, mostly under pKd 3.1 to 4
# Conditions: plain residues with an end cap or a label only (N-terminal biotin on a linker: ado-ado)
row,Binder,pKd
1,"VLYPREGTEV [FOXI1, Q12951]",below the threshold

# Target: T4, SNTB1, Q13884
# Assay: holdup assay
# Parameters: key: below the threshold = too weak to quantify, mostly under pKd 3.1 to 4
# Conditions: plain residues with an end cap or a label only (N-terminal biotin on a linker: ado-ado)
row,Binder,pKd
1,"VLYPREGTEV [FOXI1, Q12951]",3.97

# Target: TJP1_2, Q07157
# Sequence (Q07157 181-274): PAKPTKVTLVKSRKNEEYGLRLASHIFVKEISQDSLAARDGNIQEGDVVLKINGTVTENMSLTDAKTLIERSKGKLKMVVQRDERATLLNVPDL
# Assay: holdup assay
# Parameters: key: below the threshold = too weak to quantify, mostly under pKd 3.1 to 4
# Conditions: plain residues with an end cap or a label only (N-terminal biotin on a linker: ado-ado)
row,Binder,pKd
1,"VLYPREGTEV [FOXI1, Q12951]",below the threshold

# Target: T5, GRIP1_5, Q9Y3R0
# Assay: holdup assay
# Parameters: key: below the threshold = too weak to quantify, mostly under pKd 3.1 to 4
# Conditions: plain residues with an end cap or a label only (N-terminal biotin on a linker: ado-ado)
row,Binder,pKd
1,"VLYPREGTEV [FOXI1, Q12951]",below the threshold

# Target: LNX1_2, Q8TBB1
# Sequence (Q8TBB1 371-470): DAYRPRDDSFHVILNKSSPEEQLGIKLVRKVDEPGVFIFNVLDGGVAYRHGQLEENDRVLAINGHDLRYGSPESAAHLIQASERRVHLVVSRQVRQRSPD
# Assay: holdup assay
# Parameters: key: below the threshold = too weak to quantify, mostly under pKd 3.1 to 4
# Conditions: plain residues with an end cap or a label only (N-terminal biotin on a linker: ado-ado)
row,Binder,pKd
1,"VLYPREGTEV [FOXI1, Q12951]",3.6

# Target: AHNAK1, Q09666
# Sequence (Q09666 4-100): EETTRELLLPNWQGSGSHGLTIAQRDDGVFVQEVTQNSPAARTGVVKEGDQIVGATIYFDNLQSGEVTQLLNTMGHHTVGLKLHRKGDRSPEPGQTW
# Assay: holdup assay
# Parameters: key: below the threshold = too weak to quantify, mostly under pKd 3.1 to 4
# Conditions: plain residues with an end cap or a label only (N-terminal biotin on a linker: ado-ado)
row,Binder,pKd
1,"VLYPREGTEV [FOXI1, Q12951]",below the threshold

# Target: T6, LIN7C, Q9NUP9
# Assay: holdup assay
# Parameters: key: below the threshold = too weak to quantify, mostly under pKd 3.1 to 4
# Conditions: plain residues with an end cap or a label only (N-terminal biotin on a linker: ado-ado)
row,Binder,pKd
1,"VLYPREGTEV [FOXI1, Q12951]",4.26

# Target: T7, SHANK1, Q9Y566
# Assay: holdup assay
# Parameters: key: below the threshold = too weak to quantify, mostly under pKd 3.1 to 4
# Conditions: plain residues with an end cap or a label only (N-terminal biotin on a linker: ado-ado)
row,Binder,pKd
1,"VLYPREGTEV [FOXI1, Q12951]",3.49

# Target: T8, DVL3, Q92997
# Assay: holdup assay
# Parameters: key: below the threshold = too weak to quantify, mostly under pKd 3.1 to 4
# Conditions: plain residues with an end cap or a label only (N-terminal biotin on a linker: ado-ado)
row,Binder,pKd
1,"VLYPREGTEV [FOXI1, Q12951]",below the threshold

# Target: FRMPD4, Q14CM0
# Sequence (Q14CM0 67-160): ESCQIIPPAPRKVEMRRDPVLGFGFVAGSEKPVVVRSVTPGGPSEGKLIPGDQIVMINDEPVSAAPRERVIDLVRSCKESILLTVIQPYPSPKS
# Assay: holdup assay
# Parameters: key: below the threshold = too weak to quantify, mostly under pKd 3.1 to 4
# Conditions: plain residues with an end cap or a label only (N-terminal biotin on a linker: ado-ado)
row,Binder,pKd
1,"VLYPREGTEV [FOXI1, Q12951]",3.51

# Target: T9, MPDZ_5, O75970
# Assay: holdup assay
# Parameters: key: below the threshold = too weak to quantify, mostly under pKd 3.1 to 4
# Conditions: plain residues with an end cap or a label only (N-terminal biotin on a linker: ado-ado)
row,Binder,pKd
1,"VLYPREGTEV [FOXI1, Q12951]",3.66

# Target: T10, DFNB31_3, Q9P202
# Assay: holdup assay
# Parameters: key: below the threshold = too weak to quantify, mostly under pKd 3.1 to 4
# Conditions: plain residues with an end cap or a label only (N-terminal biotin on a linker: ado-ado)
row,Binder,pKd
1,"VLYPREGTEV [FOXI1, Q12951]",below the threshold

# Target: GRIP2_3, Q9C0E4
# Sequence (Q9C0E4 238-339): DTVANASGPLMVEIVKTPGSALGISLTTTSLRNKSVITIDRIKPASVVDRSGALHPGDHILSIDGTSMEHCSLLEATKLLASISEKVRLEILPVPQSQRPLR
# Assay: holdup assay
# Parameters: key: below the threshold = too weak to quantify, mostly under pKd 3.1 to 4
# Conditions: plain residues with an end cap or a label only (N-terminal biotin on a linker: ado-ado)
row,Binder,pKd
1,"VLYPREGTEV [FOXI1, Q12951]",below the threshold

# Target: GORASP2, Q9H8Y8
# Assay: holdup assay
# Parameters: key: below the threshold = too weak to quantify, mostly under pKd 3.1 to 4
# Conditions: plain residues with an end cap or a label only (N-terminal biotin on a linker: ado-ado)
row,Binder,pKd
1,"VLYPREGTEV [FOXI1, Q12951]",below the threshold

# Target: T11, DLG3_2, Q92796
# Assay: holdup assay
# Parameters: key: below the threshold = too weak to quantify, mostly under pKd 3.1 to 4
# Conditions: plain residues with an end cap or a label only (N-terminal biotin on a linker: ado-ado)
row,Binder,pKd
1,"VLYPREGTEV [FOXI1, Q12951]",4.59

# Target: MAGI3_2, Q5TCQ9
# Sequence (Q5TCQ9 398-503): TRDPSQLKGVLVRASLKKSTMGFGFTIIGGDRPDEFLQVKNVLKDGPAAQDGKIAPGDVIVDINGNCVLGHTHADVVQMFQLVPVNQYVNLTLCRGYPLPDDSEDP
# Assay: holdup assay
# Parameters: key: below the threshold = too weak to quantify, mostly under pKd 3.1 to 4
# Conditions: plain residues with an end cap or a label only (N-terminal biotin on a linker: ado-ado)
row,Binder,pKd
1,"VLYPREGTEV [FOXI1, Q12951]",4.52

# Target: GRID2IP_1, A4D2P6
# Sequence (A4D2P6 1-87): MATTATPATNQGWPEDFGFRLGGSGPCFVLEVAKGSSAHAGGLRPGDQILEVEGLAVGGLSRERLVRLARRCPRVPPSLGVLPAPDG
# Assay: holdup assay
# Parameters: key: below the threshold = too weak to quantify, mostly under pKd 3.1 to 4
# Conditions: plain residues with an end cap or a label only (N-terminal biotin on a linker: ado-ado)
row,Binder,pKd
1,"VLYPREGTEV [FOXI1, Q12951]",below the threshold

# Target: T12, LNX2_2, Q8N448
# Assay: holdup assay
# Parameters: key: below the threshold = too weak to quantify, mostly under pKd 3.1 to 4
# Conditions: plain residues with an end cap or a label only (N-terminal biotin on a linker: ado-ado)
row,Binder,pKd
1,"VLYPREGTEV [FOXI1, Q12951]",4.22

# Target: Inadl_2, Q8NI35
# Sequence (Q8NI35 238-335): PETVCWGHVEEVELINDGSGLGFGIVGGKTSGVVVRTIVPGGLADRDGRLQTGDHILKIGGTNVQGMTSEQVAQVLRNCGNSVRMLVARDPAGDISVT
# Assay: holdup assay
# Parameters: key: below the threshold = too weak to quantify, mostly under pKd 3.1 to 4
# Conditions: plain residues with an end cap or a label only (N-terminal biotin on a linker: ado-ado)
row,Binder,pKd
1,"VLYPREGTEV [FOXI1, Q12951]",below the threshold

# Target: FRMPD2_3, Q68DX3
# Sequence (Q68DX3 1073-1166): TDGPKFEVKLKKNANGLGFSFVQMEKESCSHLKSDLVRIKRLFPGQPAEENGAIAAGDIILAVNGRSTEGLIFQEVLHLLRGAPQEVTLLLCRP
# Assay: holdup assay
# Parameters: key: below the threshold = too weak to quantify, mostly under pKd 3.1 to 4
# Conditions: plain residues with an end cap or a label only (N-terminal biotin on a linker: ado-ado)
row,Binder,pKd
1,"VLYPREGTEV [FOXI1, Q12951]",below the threshold

# Target: PICK1, Q9NRD5
# Sequence (Q9NRD5 17-115): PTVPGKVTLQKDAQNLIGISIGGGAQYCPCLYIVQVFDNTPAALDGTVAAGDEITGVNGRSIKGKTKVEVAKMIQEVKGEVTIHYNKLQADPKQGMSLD
# Assay: holdup assay
# Parameters: key: below the threshold = too weak to quantify, mostly under pKd 3.1 to 4
# Conditions: plain residues with an end cap or a label only (N-terminal biotin on a linker: ado-ado)
row,Binder,pKd
1,"VLYPREGTEV [FOXI1, Q12951]",4.21
